# Reference: publication PMC11912573, “Dynamic Assembly of Pentamer-Based Protein Nanotubes” (ACS Nano, 2025)
# Values joined by “and” are separate entries in the source; they are usually repeats but may differ in a detail not shown here. Equal entries are not always repeated.
# B1: cpAaLS(119, C37S, A85C) (enzyme, Aquifex aeolicus)
# chain: TLEQAIERAGTKHGNKGWEAALSAIEMANLFKSLRGTGGSGSSMQIYEGKLTAEGLRFGIVASRFNHALVDRLVEGAIDSIVRHGGREEDITLVRVPGSWEIPVAAGELARKEDIDAVIAIGVLIRGCTPHFDYIASEVSKGLANLSLELRKPITFGVITAD
# notes: Aquifex aeolicus lumazine synthase (AaLS), from the new N-terminus at residue 120 to the native C-terminus; octapeptide linker connecting the native C- and N-termini; Aquifex aeolicus lumazine synthase (AaLS), from the native N-terminus to the new C-terminus at residue 119, with C37S and A85C; Made from cpAaLS(119) by two rounds of site-directed mutagenesis; source: E. coli BL21-Gold(DE3), …
# B2: circularly permuted Aquifex aeolicus lumazine synthase cpAaLS(119) (enzyme)
# chain: TLEQAIERAGTKHGNKGWEAALSAIEMANLFKSLRGTGGSGSSMQIYEGKLTAEGLRFGIVASRFNHALVDRLVEGAIDCIVRHGGREEDITLVRVPGSWEIPVAAGELARKEDIDAVIAIGVLIRGATPHFDYIASEVSKGLANLSLELRKPITFGVITAD
# notes: Aquifex aeolicus lumazine synthase (AaLS), from the new N-terminus at residue 120 to the native C-terminus; includes the α-helix(120–131); octapeptide linker connecting the native C- and N-termini; Aquifex aeolicus lumazine synthase (AaLS), from the native N-terminus to the new C-terminus at residue 119; source: E. coli BL21-Gold(DE3), purified (heating at 70 °C, anion exchange, SEC)
# B3: circularly permuted Aquifex aeolicus lumazine synthase cpAaLS(84) (enzyme)
# chain: ATPHFDYIASEVSKGLANLSLELRKPITFGVITADTLEQAIERAGTKHGNKGWEAALSAIEMANLFKSLRGTGGSGSSMQIYEGKLTAEGLRFGIVASRFNHALVDRLVEGAIDCIVRHGGREEDITLVRVPGSWEIPVAAGELARKEDIDAVIAIGVLIRG
# notes: Aquifex aeolicus lumazine synthase (AaLS), from the new N-terminus at residue 85 to the native C-terminus; octapeptide linker connecting the native C- and N-termini; Aquifex aeolicus lumazine synthase (AaLS), from the native N-terminus to the new C-terminus at residue 84; source: E. coli BL21-Gold(DE3), purified (heating at 70 °C, anion exchange, SEC)
# What was measured:
# [1] = target: the molecule itself; assay: cryo-EM structure; cpAaLS(119, C37S, A85C) twisted tubes, helical reconstruction in three classes (0-, 18-, 28-Å gap); 50 mM Tris-HCl pH 8.5, 0.15 M NaCl, 1 mM TCEP
# [2] = target: the molecule itself; assay: cryo-EM 2D classification; cpAaLS(119) capsomers without NaCl at pH 8.5; Titan Krios; 3D reconstruction unsuccessful (preferential orientation)
# [3] = target: the molecule itself; assay: cryo-EM micrographs; Glacios microscope, micrographs of the assemblies; buffer of these samples not given
protein,measurement,setting,value
B1,binding result,[1],binds
B2,stoichiometry N,[2],5 and 10
B3,binding result,[3],binds
